Results taken from patent US20230129258A1 (Bicycle, published 2023).
Starred links: 1 amine or outer side, 2 acyl side, 3 side chain; linkers in the order of their positions; H or OH if unused. Positions of bridges follow the written chain, without caps; N, C: chain ends. Non-standard residues stand in square brackets, D forms with d. Chains are numbered I, II in the order given. No end group written: not given here. *: point of attachment. TATA = O=C(CC[*:1])N1CN(C(=O)CC[*:2])CN(C(=O)CC[*:3])C1; Dip = N[C@H](C(=O)O)C(c1ccccc1)c1ccccc1; 1Nal = N[C@@H](Cc1cccc2ccccc12)C(=O)O; Hyp = O=C(O)[C@@H]1C[C@@H](O)CN1; hArg = N=C(N)NCCCC[C@H](N)C(=O)O; tBuAla = CC(C)(C)C[C@H](N)C(=O)O; Cba = N[C@@H](CC1CCC1)C(=O)O; dK(PYA) = not defined here; Nle = CCCC[C@H](N)C(=O)O; Pent4ynoyl = C#CCCC(=O)*; Mpa = O=C(O)CCS

B1: BCY13341 (peptide)
peptide 1: C[Hyp][Cba]VNPLCL[Dip]P[dD]WTC[dA]
peptide 2: [Mpa][tBuAla]PE[dK(PYA)]PYCFADPY[Nle]C
modifications: linker I:1-I:8-I:15, II:1-II:8-II:15 via TATA; reading uncertain; also: linker at chain B 5 to a chain's N-terminus via N-(acid-PEG3)-N-bis(PEG3-azide)
B2: BCY13274 (peptide)
peptide 1: Ac-C[Hyp]LVNPLCL[Dip]P[dD]WTC[dK]
peptide 2: Ac-C[tBuAla]PE[dK](Pent4ynoyl)PYCFADPY[Nle]CA
modifications: linker I:1-I:8-I:15 via TATA; linker II:1-II:8-II:15 via TATA (inferred); not fully specified (bridges); also: linker N-(acid-PEG3)-N-bis(PEG3-azide) on C-terminal dK of chain 1, joins two chain 2 copies via PYA triazoles
B3: BCY13282 (peptide)
peptide 1: ADC[Hyp]LVNPLCLEP[dD]WTC
peptide 2: Ac-C[tBuAla]PE[dK](Pent4ynoyl)PYCFADPY[Nle]CA
modifications: linker I:3-I:10-I:17, II:1-II:8-II:15 via TATA (inferred); not fully specified (N-terminus, bridges); also: 1:2 complex: two BCY8928 chains on the linker
B4: BCY13280 (peptide)
peptide 1: [dA]EDC[Hyp]LVNPLCLEP[dD]WTC
peptide 2: Ac-C[tBuAla]PE[dK](Pent4ynoyl)PYCFADPY[Nle]CA
modifications: linker I:4-I:11-I:18, II:1-II:8-II:15 via TATA (inferred); not fully specified (N-terminus, bridges); also: 1:2 complex: two copies of chain 2 (BCY8928) on the branched linker
B5: BCY13281 (peptide)
peptide 1: AADCXLVNPLCLEPDWTC
peptide 2: CXPEXPYCFADPYXCA
modifications: not fully specified; BCY8928: Ac-(SEQ ID NO: 11)-A; TATA; linker at dLys(PYA)4; BCY13127: [dA]-[dA]-D-(SEQ ID NO: 35); TATA; linker at N-terminus
B6: BCY12978 (peptide)
peptide 1: A[hArg]EC[Hyp]LVNPLCLHP[dE]W[hArg]C
peptide 2: Ac-C[tBuAla]PE[dK](Pent4ynoyl)PYCFADPY[Nle]CA
modifications: linker I:4-I:11-I:18, II:1-II:8-II:15 via TATA (inferred); not fully specified (bridges); also: chain 1 N-terminus and chain 2 dLys(PYA) joined through N-(acid-PEG3)-N-bis(PEG3-azide) linker
B7: BCY13048 (peptide)
peptide 1: C[Hyp]LVNPLCL[Dip]P[dD]WTC
peptide 2: Ac-C[tBuAla]PE[dK](Pent4ynoyl)PYCFADPY[Nle]CA
modifications: linker I:1-I:8-I:15 via TATA; linker II:1-II:8-II:15 via TATA (inferred); not fully specified (N-terminus, bridges); also: 1:2 complex: two copies of chain 2 (BCY8928) on the branched linker
B8: BCY13343 (peptide)
peptide 1: C[Hyp]LVNPLCL[Dip]PDWTC
peptide 2: [Mpa][tBuAla]PE[dK(PYA)]PYCFADPY[Nle]C
modifications: linker I:1-I:8-I:15, II:1-II:8-II:15 via TATA; not fully specified (some residues); reading uncertain; also: 1:2 complex: two copies of chain 2 (BCY12353) on the branched linker, linker at chain B 5 to a chain's N-terminus via N-(acid-PEG3)-N-bis(PEG3-azide)
B9: BCY13049 (peptide)
peptide 1: C[Hyp]LVNPLCLEP[dD]WTC[dA]
peptide 2: Ac-C[tBuAla]PE[dK](Pent4ynoyl)PYCFADPY[Nle]CA
modifications: linker I:1-I:8-I:15, II:1-II:8-II:15 via TATA (inferred); not fully specified (N-terminus); also: linker joins chain 1 to two chain 2 copies via PYA triazoles
B10: BCY13273 (peptide)
peptide 1: C[Hyp]LVNPLCL[1Nal]PDWTC
peptide 2: Ac-C[tBuAla]PE[dK](Pent4ynoyl)PYCFADPY[Nle]CA
modifications: linker I:1-I:8-I:15 via TATA; linker II:1-II:8-II:15 via TATA (inferred); not fully specified (some residues, N-terminus); also: linker joins chain 1 to two chain 2 copies via PYA triazoles
B11: BCY13053 (peptide)
peptide 1: C[Hyp][Cba]VNPLCL[Dip]P[dD]WTC[dA]
peptide 2: Ac-C[tBuAla]PE[dK](Pent4ynoyl)PYCFADPY[Nle]CA
modifications: linker I:1-I:8-I:15 via TATA; linker II:1-II:8-II:15 via TATA (inferred); not fully specified (N-terminus, bridges); also: 1:2 complex: two copies of chain 2 (BCY8928) on the branched linker
B12: BCY11385 (peptide)
peptide 1: CPXDCMXDWSTPXWC
peptide 2: CXPEAPYCFADPYXCX
modifications: not fully specified; BCY11014: Ac-(SEQ ID NO: 6)-Dap(PYA); TATA; linker at C-term Dap(PYA); BCY8116: SEQ ID NO: 1; TATA; linker at N-terminus
B13: BCY12485 (peptide)
peptide 1: CPXDCMXDWSTPXWC
peptide 2: CXPEXPYCFADPYXC
modifications: not fully specified; BCY12149: Ac-(SEQ ID NO: 63); TATA; linker at dLys(PYA)4; BCY8116: SEQ ID NO: 1; TATA; linker at N-terminus
B14: BCY12486 (peptide)
peptide 1: CPXDCMXDWSTPXWC
peptide 2: CXPEXPYCFANPYXC
modifications: not fully specified; BCY12147: Ac-(SEQ ID NO: 65); TATA; linker at dLys(PYA)4; BCY8116: SEQ ID NO: 1; TATA; linker at N-terminus
B15: BCY12484 (peptide)
peptide 1: CPXDCMXDWSTPXWC
peptide 2: CXEEXPYCFADPYXC
modifications: not fully specified; BCY12143: Ac-(SEQ ID NO: 64); TATA; linker at dLys(PYA)4; BCY8116: SEQ ID NO: 1; TATA; linker at N-terminus
B16: BCY12586 (peptide)
peptide 1: CPXDCMXDWSTPXWC
peptide 2: CXPEXPYCFADPYXX
modifications: not fully specified; BCY12352: Ac-(SEQ ID NO: 69), [Cysam] third reactive group; TATA; linker at dLys(PYA)4; BCY8116: SEQ ID NO: 1; TATA; linker at N-terminus

Biological target: T1, CD137 on Jurkat reporter cells (Promega kit CS196005) (UniProt Q07011 24-255, limits assumed)
T1 sequence (Q07011 24-255 limits assumed): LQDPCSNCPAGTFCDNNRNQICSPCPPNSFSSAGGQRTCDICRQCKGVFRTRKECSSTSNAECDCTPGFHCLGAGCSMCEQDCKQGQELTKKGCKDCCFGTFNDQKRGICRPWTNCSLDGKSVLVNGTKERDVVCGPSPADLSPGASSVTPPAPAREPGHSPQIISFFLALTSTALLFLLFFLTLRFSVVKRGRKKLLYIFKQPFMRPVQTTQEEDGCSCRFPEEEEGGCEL
Assay: cell-based or functional assay

Binder	EC50 (nM), PC3 co-culture [nM]	Emax (fold induction over background), PC3 [fold over background]
B1	0.19	49.1
B2	0.19	47.4
B3	0.22	40
B4	0.19	38.1
B5	0.17	35.6
B6	0.05	78.1
B7	0.09	48.4
B8	0.11	44
B9	0.3	46
B10	0.13	51.3
B11	0.1	40.3

Biological target: T1, CD137 on Jurkat reporter cells (Promega …)
Assay: cell-based or functional assay
Remark: another data set of the same source

Binder	Fold improvement in EC50 over BCY10000 on same plate, NCI-H292 [fold]	Fold improvement in Emax over BCY10000 on same plate, NCI-H292 [fold]
B12	9.35	1.28
B13	3.82	2.18
B14	0.25	1.73
B15	5.46	1.86
B16	1.9	3.79
